# From patent publication US20250179126A1, “A NOVEL PEPTIDE FROM A PHOTOSYNTHETIC BACERIUM DIRECTLY TARGETS MITOCHONDRIA TO TRIGGER APOPTOSIS IN ADVANCED PROSTATE CANCER CELLS” (priority 2022, published 2025)
# B1: aldolase A: purified human aldolase A (purity >95%), glycolytic enzyme (protein, UniProt P04075 2-364, looked up)
# Fructose-bisphosphate …: PYQYPALTPEQKKELSDIAHRIVAPGKGILAADESTGSIAKRLQSIGTENTEENRRFYRQLLLTADDRVNPCIGGVILFHETLYQKADDGRPFPQVIKSKGGVVGIKVDKGVVPLAGTNGETTTQGLDGLSERCAQYKKDGADFAKWRCVLKIGEHTPSALAIMENANVLARYASICQQNGIVPIVEPEILPDGDHDLKRCQYVTEKVLAAVYKALSDHHIYLEGTLLKPNMVTPGHACTQKFSHEEIAMATVTALRRTVPPAVTGITFLSGGQSEEEASINLNAINKCPLLKPWALTFSYGRALQASALKAWGGKKENLKAAQEEYVKRALANSLACQGKYTPSGQAGAAASESLFVSNHAY
# Key:
# [1] = tested on: spontaneously developed mammary tumors; experiment: NIR-imaging of transgenic mice; type: in vivo; conditions: 5 mg/kg once, imaged after 24 h
# Description: FIG. 29A-29C: Effect of azurin from P. aeruginosa in a transgenic animal model. 29A. Near-infrared red (NIR) dye-conjugated azurin or PBS was injected i.v. into transgenic mice that spontaneously develop mammary tumors. Twenty-four hours after azurin injection, mice were imaged with a photodynamic eye (PDE) system (left: photographic image, right: NIR fluorescence image at 800 nm). 29B. At the end of the study, the tumors were resected.
# NIR-imaging of transgenic mice: Near infrared red fluorescent dye (IR800, Licor, NE) was conjugated to azurin according to the manufacturer instructions. Transgenic mice with spontaneously developed mammary tumours received NIR dye conjugated azurin at 5 mg/kg once i.p. After 24 h, specific fluorescence signal at 800 nm was recorded by the PDE-neo® NIR camera system (Hamamatsu photonics, Mitaka-USA).
# Mel-2 cells = experiment: Host cell adhesion assay, P. aeruginosa on Mel-2 cells; type: cell-based, human
# Description: (§1) FIG. 24A-24E: 24A—Adherence assays were performed essentially as previously described38. Monolayer MDA-MB-231 (red) and Mel-2 (blue) cells were compared to siRNA-induced silencing of aldolase gene in the cancer cell lines (+) when they were co-incubated with P. aeruginosa for 2 h. To assess total cell association, monolayers were washed to remove unbound P. aeruginosa and were then disrupted and homogenized in 0.10% saponin/PBS. P. aeruginosa cells were counted by serial dilution of the homogenized suspensions and subsequent determination of colony-forming units (CFU) by plating on LB agar. Control (−) expressed as 100%. Mean±SE, *P<0.05. 24B—Monolayer MDA-MB-231 (red) and Mel-2 (blue) cells were co-incubated with P. aeruginosa in the presence or absence of exogenous aldolase A for 2 h. Similar to above, total P. aeruginosa association on cancer cells were counted by plating on LB agar. Control (0 μM aldolase A) expressed as 100%. […] Total P. aeruginosa association on cancer cells were counted by plating on LB agar. *P<0.05, NS: not significant. […] The mean+SE values were calculated.
# (§2) Host cell adhesion assay: The assays were performed essentially as described before38. […] Control values of CFU/ml expressed as 100%. siRNA-induced silencing of aldolase and MUC1 genes in MDA-MB-231 and Mel2 cells as conducted as described previously80,81. […]
# P. aeruginosa = experiment: Azurin secretion by P. aeruginosa treated with purified aldolase A (western blot); type: cell-based, Pseudomonas aeruginosa; conditions: 30 min
# Description: FIG. 18A-18G: Induction of aldolase A secretion by host cells in the presence of P. aeruginosa. 18A. Human host cells (cancer and normal) and P. aeruginosa were co-incubated for 30 min at a concentration of 500,000 human cells/ml with P. aeruginosa at OD=0.3. Aldolase secretion varied between the co-cultures with cancer and normal cells. […] 18B Correlation between the aldolase A and azurin levels in co-cultures of P. aeruginosa with cancer or normal cells. 18C Cancer cells (Mel-2 and MDA-MB-231) and P. aeruginosa (WT and azunull mutant) were co-incubated for 30 min at a concentration of 500,000 human cells/ml with P. aeruginosa at OD=0.3. Secretion of aldolase into the culture supernatant was assessed by western blot analysis. 18D P. aeruginosa (OD=0.3) was treated with purified aldolase A protein at concentrations of 1 nM, 10 nM, 100 nM, and 1 μM for 30 min. […]
# Western blotting: After running the NuPAGE, proteins were transferred to PVDF membranes (BioRad Laboratories Inc, Hercules, CA) which were blocked in SuperBlock (T20 TBS buffer, Thermo Fisher) for one hour. […] The signal was detected using enhanced chemiluminescence (ECL, Thermo Fisher Scientific). Quantitative analysis of the bands was performed with a computer-assisted imaging densitometer (UN-SCAN-IT gel version 5.1).
# MDA-MB-231 cells = experiment: Host cell adhesion assay, P. aeruginosa on MDA-MB-231 cells; type: cell-based, human
# Description: as §1, §2
Molecule,tumor localization (NIR fluorescence at 800 nm) [1],"aldolase A concentration at which increase of adherence is saturable (Mel-2 cells; Mel-2, 2 h) [µM]","adherence of P. aeruginosa to cancer cells (Mel-2 cells; Mel-2, exogenous aldolase A, 2 h)","azurin secretion by P. aeruginosa (western blot) (P. aeruginosa; P. aeruginosa OD=0.3, 1 μM aldolase A)","azurin secretion by P. aeruginosa (western blot) (P. aeruginosa; P. aeruginosa OD=0.3, purified aldolase A 1 nM-1 μM)","aldolase A concentration at which increase of adherence is saturable (MDA-MB-231 cells; MDA-MB-231, 2 h) [µM]","adherence of P. aeruginosa to cancer cells (MDA-MB-231 cells; MDA-MB-231, exogenous aldolase A, 2 h)"
NIR dye-conjugated azurin: azurin conjugated to near infrared red fluorescent dye IR800,preferentially localized to spontaneously developed mammary tumors,–,–,–,–,–,–
B1,–,> 1,significantly increased adherence to cancer cells,stimulated azurin secretion,induced azurin secretion,> 1,significantly increased adherence to cancer cells
